Sequences and labels used below:
B1: Nkd1-BirA* [murine] / DVL3 [human (endogenous in Flp-In-T-REx-293)] (parent)
chain 1: MGKLHSKPAAVCKRRESPEGDSFAVSAAWARKGIEEWIGRQRCPGSVSGPRQLRLAGTVGRGTRELVGDTSREALGEEDEDDFPLEVALPPEKIDSLGSGDEKRMERLSEPGQASKKQLKFEELQCDVSVEEDSRQEWTFTLYDFDNNGKVTREDITSLLHTIYEVVDSSVNHSPTSSKTLRVKLTVAPDGSQSKRSVLFNHTDLQSTRPRADTKPAEELRGWEKKQRAPLRFQGDSHLEQPDCYHHCVDENIERRNHYLDLAGIENYTSQFGPGSPSVAQKSELPPRISNPTRSRSHEPEAAHIPHRRPQGVDPGSFHLLDTPFAKASELQQRLRGTQDGSKHFVRSPKAQGKNMGMGHGARGARSKPPLVPTTHTVSPSAHLATSPALLPTLAPLGHKKHKHRAKESQASCRGLQGPLAAGGSTVMGREQVRELPAVVVYESQAGQAVQRHEHHHHHEHHHHYHHFYQP
chain 2: MGETKIIYHLDGQETPYLVKLPLPAERVTLADFKGVLQRPSYKFFFKSMDDDFGVVKEEISDDNAKLPCFNGRVVSWLVSAEGSHPDPAPFCADNPSELPPPMERTGGIGDSRPPSFHPHAGGGSQENLDNDTETDSLVSAQRERPRRRDGPEHATRLNGTAKGERRREPGGYDSSSTLMSSELETTSFFDSDEDDSTSRFSSSTEQSSASRLMRRHKRRRRKQKVSRIERSSSFSSITDSTMSLNIITVTLNMEKYNFLGISIVGQSNERGDGGIYIGSIMKGGAVAADGRIEPGDMLLQVNEINFENMSNDDAVRVLREIVHKPGPITLTVAKCWDPSPRGCFTLPRSEPIRPIDPAAWVSHTAAMTGTFPAYGMSPSLSTITSTSSSITSSIPDTERLDDFHLSIHSDMAAIVKAMASPESGLEVRDRMWLKITIPNAFIGSDVVDWLYHNVEGFTDRREARKYASNLLKAGFIRHTVNKITFSEQCYYIFGDLCGNMANLSLHDHDGSSGASDQDTLAPLPHPGAAPWPMAFPYQYPPPPHPYNPHPGFPELGYSYGGGSASSQHSEGSRSSGSNRSGSDRRKEKDPKAGDSKSGGSGSESDHTTRSSLRGPRERAPSERSGPAASEHSHRSHHSLASSLRSHHTHPSYGPPGVPPLYGPPMLMMPPPPAAMGPPGAPPGRDLASVPPELTASRQSFRMAMGNPSEFFVDVM
B2: Nkd1-BirA* [murine] / DVL1 [human (endogenous in Flp-In-T-REx-293)] (parent)
chain 1: B1 chain 1
chain 2: MAETKIIYHMDEEETPYLVKLPVAPERVTLADFKNVLSNRPVHAYKFFFKSMDQDFGVVKEEIFDDNAKLPCFNGRVVSWLVLAEGAHSDAGSQGTDSHTDLPPPLERTGGIGDSRPPSFHPNVASSRDGMDNETGTESMVSHRRERARRRNREEAARTNGHPRGDRRRDVGLPPDSASTALSSELESSSFVDSDEDGSTSRLSSSTEQSTSSRLIRKHKRRRRKQRLRQADRASSFSSITDSTMSLNIVTVTLNMERHHFLGISIVGQSNDRGDGGIYIGSIMKGGAVAADGRIEPGDMLLQVNDVNFENMSNDDAVRVLREIVSQTGPISLTVAKCWDPTPRSYFTVPRADPVRPIDPAAWLSHTAALTGALPRYGTSPCSSAVTRTSSSSLTSSVPGAPQLEEAPLTVKSDMSAVVRVMQLPDSGLEIRDRMWLKITIANAVIGADVVDWLYTHVEGFKERREARKYASSLLKHGFLRHTVNKITFSEQCYYVFGDLCSNLATLNLNSGSSGTSDQDTLAPLPHPAAPWPLGQGYPYQYPGPPPCFPPAYQDPGFSYGSGSTGSQQSEGSKSSGSTRSSRRAPGREKERRAAGAGGSGSESDHTAPSGVGSSWRERPAGQLSRGSSPRSQASATAPGLPPPHPTTKAYTVVGGPPGGPPVRELAAVPPELTGSRQSFQKAMGNPCEFFVDIM
B3: Nkd1-BirA* [murine] / VANGL1 [human (endogenous in Flp-In-T-REx-293)] (parent)
chain 1: B1 chain 1
chain 2: MDTESTYSGYSYYSSHSKKSHRQGERTRERHKSPRNKDGRGSEKSVTIQPPTGEPLLGNDSTRTEEVQDDNWGETTTAITGTSEHSISQEDIARISKDMEDSVGLDCKRYLGLTVASFLGLLVFLTPIAFILLPPILWRDELEPCGTICEGLFISMAFKLLILLIGTWALFFRKRRADMPRVFVFRALLLVLIFLFVVSYWLFYGVRILDSRDRNYQGIVQYAVSLVDALLFIHYLAIVLLELRQLQPMFTLQVVRSTDGESRFYSLGHLSIQRAALVVLENYYKDFTIYNPNLLTASKFRAAKHMAGLKVYNVDGPSNNATGQSRAMIAAAARRRDSSHNELYYEEAEHERRVKKRKARLVVAVEEAFIHIQRLQAEEQQKAPGEVMDPREAAQAIFPSMARALQKYLRITRQQNYHSMESILQHLAFCITNGMTPKAFLERYLSAGPTLQYDKDRWLSTQWRLVSDEAVTNGLRDGIVFVLKCLDFSLVVNVKKIPFIILSEEFIDPKSHKFVLRLQSETSV
B4: Nkd1-BirA* [murine] / DVL2 (endogenous) [human (endogenous in Flp-In-T-REx-293)] (parent)
chain 1: B1 chain 1
chain 2: MAGSSTGGGGVGETKVIYHLDEEETPYLVKIPVPAERITLGDFKSVLQRPAGAKYFFKSMDQDFGVVKEEISDDNARLPCFNGRVVSWLVSSDNPQPEMAPPVHEPRAELAPPAPPLPPLPPERTSGIGDSRPPSFHPNVSSSHENLEPETETESVVSLRRERPRRRDSSEHGAGGHRTGGPSRLERHLAGYESSSTLMTSELESTSLGDSDEEDTMSRFSSSTEQSSASRLLKRHRRRRKQRPPRLERTSSFSSVTDSTMSLNIITVTLNMEKYNFLGISIVGQSNERGDGGIYIGSIMKGGAVAADGRIEPGDMLLQVNDMNFENMSNDDAVRVLRDIVHKPGPIVLTVAKCWDPSPQAYFTLPRNEPIQPIDPAAWVSHSAALTGTFPAYPGSSSMSTITSGSSLPDGCEGRGLSVHTDMASVTKAMAAPESGLEVRDRMWLKITIPNAFLGSDVVDWLYHHVEGFPERREARKYASGLLKAGLIRHTVNKITFSEQCYYVFGDLSGGCESYLVNLSLNDNDGSSGASDQDTLAPLPGATPWPLLPTFSYQYPAPHPYSPQPPPYHELSSYTYGGGSASSQHSEGSRSSGSTRSDGGAGRTGRPEERAPESKSGSGSESEPSSRGGSLRRGGEASGTSDGGPPPSRGSTGGAPNLRAHPGLHPYGPPPGMALPYNPMMVVMMPPPPPPVPPAVQPPGAPPVRDLGSVPPELTASRQSFHMAMGNPSEFFVDVM
B5: Nkd1-BirA* [murine] / VANGL2 [human (endogenous in Flp-In-T-REx-293)] (parent)
chain 1: B1 chain 1
chain 2: MDTESQYSGYSYKSGHSRSSRKHRDRRDRHRSKSRDGGRGDKSVTIQAPGEPLLDNESTRGDERDDNWGETTTVVTGTSEHSISHDDLTRIAKDMEDSVPLDCSRHLGVAAGATLALLSFLTPLAFLLLPPLLWREELEPCGTACEGLFISVAFKLLILLLGSWALFFRRPKASLPRVFVLRALLMVLVFLLVVSYWLFYGVRILDARERSYQGVVQFAVSLVDALLFVHYLAVVLLELRQLQPQFTLKVVRSTDGASRFYNVGHLSIQRVAVWILEKYYHDFPVYNPALLNLPKSVLAKKVSGFKVYSLGEENSTNNSTGQSRAVIAAAARRRDNSHNEYYYEEAEHERRVRKRRARLVVAVEEAFTHIKRLQEEEQKNPREVMDPREAAQAIFASMARAMQKYLRTTKQQPYHTMESILQHLEFCITHDMTPKAFLERYLAAGPTIQYHKERWLAKQWTLVSEEPVTNGLKDGIVFLLKRQDFSLVVSTKKVPFFKLSEEFVDPKSHKFVMRLQSETSV
B6: Nkd1-BirA* [murine] / NBR1 [human (endogenous in Flp-In-T-REx-293)] (parent)
chain 1: B1 chain 1
chain 2: MEPQVTLNVTFKNEIQSFLVSDPENTTWADIEAMVKVSFDLNTIQIKYLDEENEEVSINSQGEYEEALKMAVKQGNQLQMQVHEGHHVVDEAPPPVVGAKRLAARAGKKPLAHYSSLVRVLGSDMKTPEDPAVQSFPLVPCDTDQPQDKPPDWFTSYLETFREQVVNETVEKLEQKLHEKLVLQNPSLGSCPSEVSMPTSEETLFLPENQFSWHIACNNCQRRIVGVRYQCSLCPSYNICEDCEAGPYGHDTNHVLLKLRRPVVGSSEPFCHSKYSTPRLPAALEQVRLQKQVDKNFLKAEKQRLRAEKKQRKAEVKELKKQLKLHRKIHLWNSIHGLQSPKSPLGRPESLLQSNTLMLPLQPCTSVMPMLSAAFVDENLPDGTHLQPGTKFIKHWRMKNTGNVKWSADTKLKFMWGNLTLASTEKKDVLVPCLKAGHVGVVSVEFIAPALEGTYTSHWRLSHKGQQFGPRVWCSIIVDPFPSEESPDNIEKGMISSSKTDDLTCQQEETFLLAKEERQLGEVTEQTEGTAACIPQKAKNVASERELYIPSVDLLTAQDLLSFELLDINIVQELERVPHNTPVDVTPCMSPLPHDSPLIEKPGLGQIEEENEGAGFKALPDSMVSVKRKAENIASVEEAEEDLSGTQFVCETVIRSLTLDAAPDHNPPCRQKSLQMTFALPEGPLGNEKEEIIHIAEEEAVMEEEEDEEDEEEEDELKDEVQSQSSASSEDYIIILPECFDTSRPLGDSMYSSALSQPGLERGAEGKPGVEAGQEPAEAGERLPGGENQPQEHSISDILTTSQTLETVPLIPEVVELPPSLPRSSPCVHHHGSPGVDLPVTIPEVSSVPDQIRGEPRGSSGLVNSRQKSYDHSRHHHGSSIAGGLVKGALSVAASAYKALFAGPPVTAQPIISEDQTAALMAHLFEMGFCDRQLNLRLLKKHNYNILQVVTELLQLNNNDWYSQRY

The first assay covers variants of B1. Description: BioID proximity labeling (mass spectrometry). As to conditions: with DVL3 [human (endogenous in Flp-In-T-REx-293)]; +Wnt3a.
On to chain 1 G2A, for which the response (unweighted spectral counts) was 240.

Variants of B2 are the subject of a further assay. Description: BioID proximity labeling (mass spectrometry). The following applies: with DVL1 [human (endogenous in Flp-In-T-REx-293)]; +Wnt3a.
Regarding chain 1 G2A, the response (unweighted spectral counts) worked out at 127.

The variants in another assay derive from B3. Description: BioID proximity labeling (mass spectrometry). The following applies: with VANGL1 [human (endogenous in Flp-In-T-REx-293)]; +Wnt3a.
Consider chain 1 G2A, for which the response (unweighted spectral counts) amounted to 7.

Variants of B4 are the subject of a further assay. Description: BioID proximity labeling (mass spectrometry). As to conditions: with DVL2 (endogenous) [human (endogenous in Flp-In-T-REx-293)]; +Wnt3a.
chain 1 G2A: the response (unweighted spectral counts) came to 303.

Variants of B5 are the subject of a further assay. Description: BioID proximity labeling (mass spectrometry). As to conditions: with VANGL2 [human (endogenous in Flp-In-T-REx-293)]; +Wnt3a.
As for chain 1 G2A, the response (unweighted spectral counts) stood at 3.

The variants in the next assay derive from B6. Description: BioID proximity labeling (mass spectrometry). As to conditions: with NBR1 [human (endogenous in Flp-In-T-REx-293)]; +Wnt3a.
Turning to chain 1 G2A, the response (unweighted spectral counts) stood at 24.
